Several values for one entry are separate records, joined by “and”; a condition that tells them apart may be missing. Equal values may be shown once.
Legend:
LHD101 chainB = target: T1, LHD101 chainB; experiment: BLI steady-state titration, biotinylated unfused LHD101B on a streptavidin sensor
T1 construct: also called LHD101B
T1 chain: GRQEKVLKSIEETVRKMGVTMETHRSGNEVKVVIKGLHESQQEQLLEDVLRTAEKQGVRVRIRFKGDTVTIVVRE
Method: Biolayer interferometry experiments were performed on an OctetRED96 BLI system (ForteBio, Menlo Park, CA). Streptavidin coated biosensors were first equilibrated for at least 10 minutes in Octet buffer (10 mM HEPES pH 7.4, 150 mM NaCl, 3 mM EDTA, 0.05% Surfactant P20) supplemented with 1 mg/ml Bovine Serum Albumin (SigmaAldrich). Enzymatically biotinylated designs were immobilized onto the biosensors by dipping the biosensors into a solution with 10-50 nM protein for 30-120 s. This was followed by dipping in fresh octet buffer to establish a baseline for 120 s. Titration experiments were performed at 25° C. while rotating at 1,000 r.p.m. Association of designs was allowed by dipping biosensors in solutions containing designed protein diluted in octet buffer until equilibrium was approached followed by dissociation by dipping the biosensors into fresh buffer solution in order to monitor the dissociation kinetics. Steady-state and global kinetic fits were performed using the manufacturer's software (Data Analysis 9.1) assuming a 1:1 binding model.

[1] = target: the molecule itself; experiment: SEC titration of the protomer alone at several injection concentrations (Superdex 200, normalised A230); self-association
101B4 = target: T2, 101B4; experiment: SEC binding assay (Superdex 200, normalised A230) of A, B and the mixture AB
T2 construct: also called LHD101B4
T2 chain: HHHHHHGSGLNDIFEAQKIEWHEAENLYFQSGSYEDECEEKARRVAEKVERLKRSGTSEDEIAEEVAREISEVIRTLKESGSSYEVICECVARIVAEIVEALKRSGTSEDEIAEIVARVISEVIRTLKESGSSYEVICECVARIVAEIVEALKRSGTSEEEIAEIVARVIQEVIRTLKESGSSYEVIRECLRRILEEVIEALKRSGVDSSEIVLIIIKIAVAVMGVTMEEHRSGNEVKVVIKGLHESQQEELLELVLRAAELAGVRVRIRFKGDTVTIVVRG
Method: (§1) Complexes and individual components were diluted in 20 mM Tris pH 8.0, 100 mM NaCl. After o/n equilibration of the mixtures at room temperature or 4 degrees C., 500 ul of sample was injected onto a Superdex™ 200 10/300 increase GL (dimers, linear assemblies) or Superose™ 6 increase 10/300 GL (symmetric assemblies) (all columns from GE healthcare) using the absorbance at 230 nm or 473 nm (for GFP tagged components) as read-out. Dimers were mixed at monomer concentrations of 5 μM or higher. Trimer and ABCD tetramer mixtures contained 5 μM of the bivalent connector, and 7.5 μM of each terminal cap (lower absolute concentrations with the same ratios were used for some trimers). ABCA tetramer mixtures contained 5 μM per bivalent connector and 15 μM terminal cap. The hexamer mixture contained 3 μM of components C and D, 3.6 μM of B and E, and 4.4 μM of A and F. The branched assembly shown in FIG. 4A contained 2.8 μM of the trivalent connector and 4 μM of each cap. For the exchange experiment shown in FIG. 5A, the ABC trimer was preincubated at concentrations of 6 μM B and 9 μM each of A and C. C′ was then added to reach a final concentration of 2 μM B, 3 μM each of A and C, and 6 μM C′.

101B82 = target: T3, 101B82; experiment: as above
T3 chain: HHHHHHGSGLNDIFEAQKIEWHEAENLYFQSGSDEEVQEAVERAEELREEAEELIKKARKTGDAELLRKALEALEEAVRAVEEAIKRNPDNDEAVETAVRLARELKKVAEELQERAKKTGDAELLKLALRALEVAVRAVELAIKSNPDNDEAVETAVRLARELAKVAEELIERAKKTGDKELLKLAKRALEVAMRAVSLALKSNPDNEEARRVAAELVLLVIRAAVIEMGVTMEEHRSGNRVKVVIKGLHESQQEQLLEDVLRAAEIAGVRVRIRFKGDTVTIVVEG
Method: as §1

LHD101 B8 = target: T4, LHD101 B8; experiment: as above
T4 single chain, LHD101 chain B fused to DHR8: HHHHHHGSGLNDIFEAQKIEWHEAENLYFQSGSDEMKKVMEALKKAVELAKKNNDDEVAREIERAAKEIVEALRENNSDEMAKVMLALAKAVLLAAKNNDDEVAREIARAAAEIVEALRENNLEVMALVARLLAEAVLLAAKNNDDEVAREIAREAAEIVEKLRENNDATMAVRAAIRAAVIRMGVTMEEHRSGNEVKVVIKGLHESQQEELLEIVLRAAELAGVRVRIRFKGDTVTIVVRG
Method: as §1

101B62 = target: T5, 101B62; experiment: as above
T5 construct: also called LHD101B62
T5 chain: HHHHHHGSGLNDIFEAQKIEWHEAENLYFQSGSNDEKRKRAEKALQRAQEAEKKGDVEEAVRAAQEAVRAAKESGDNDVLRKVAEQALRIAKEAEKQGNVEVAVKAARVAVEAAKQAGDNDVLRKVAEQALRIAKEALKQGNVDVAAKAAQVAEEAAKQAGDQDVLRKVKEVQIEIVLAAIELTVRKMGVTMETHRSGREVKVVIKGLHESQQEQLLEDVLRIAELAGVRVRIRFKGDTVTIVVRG
Method: as §1

101B14 = target: T6, 101B14; experiment: as above
T6 construct: also called LHD101 B14
T6 single chain, LHD101 chain B fused to DHR14: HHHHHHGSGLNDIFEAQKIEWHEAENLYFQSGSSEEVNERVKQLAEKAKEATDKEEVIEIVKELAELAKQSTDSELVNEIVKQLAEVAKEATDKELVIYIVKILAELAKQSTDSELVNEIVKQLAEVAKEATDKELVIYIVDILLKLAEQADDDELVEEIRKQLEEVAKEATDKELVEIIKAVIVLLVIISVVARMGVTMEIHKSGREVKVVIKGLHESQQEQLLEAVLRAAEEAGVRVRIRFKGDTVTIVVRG
Method: as §1

29B53 = target: T7, 29B53; experiment: SEC titration (Superdex 200, normalised A230) of the complexes 274A53/274B53 and 29A53/29B53
T7 construct: also called LHD29B53
T7 chain: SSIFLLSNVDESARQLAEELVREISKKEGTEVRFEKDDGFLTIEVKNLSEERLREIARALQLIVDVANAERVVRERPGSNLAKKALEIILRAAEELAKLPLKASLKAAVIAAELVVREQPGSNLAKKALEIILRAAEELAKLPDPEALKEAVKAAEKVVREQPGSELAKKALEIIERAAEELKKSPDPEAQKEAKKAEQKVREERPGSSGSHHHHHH

[2] = target: T8, LHD101 chainA, split luciferase reporter construct; experiment: split luciferase equilibrium titration in E. coli lysate, constant partner at 1 nM; first-named construct read as the titrated one; no unit beside the number, M from the axis '[Titrated] / M'
T8 construct: not shown: N-terminal Strep-tag and sfGFP; GS-linker and smBiT or lgBiT
T8 chain: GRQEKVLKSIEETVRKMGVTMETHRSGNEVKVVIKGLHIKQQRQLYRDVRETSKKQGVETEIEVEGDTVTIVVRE

DF206 = target: T9, DF206; experiment: SEC of mixed components; trimer listed in Table 6
T9 construct: Bivalent connector
T9 chain: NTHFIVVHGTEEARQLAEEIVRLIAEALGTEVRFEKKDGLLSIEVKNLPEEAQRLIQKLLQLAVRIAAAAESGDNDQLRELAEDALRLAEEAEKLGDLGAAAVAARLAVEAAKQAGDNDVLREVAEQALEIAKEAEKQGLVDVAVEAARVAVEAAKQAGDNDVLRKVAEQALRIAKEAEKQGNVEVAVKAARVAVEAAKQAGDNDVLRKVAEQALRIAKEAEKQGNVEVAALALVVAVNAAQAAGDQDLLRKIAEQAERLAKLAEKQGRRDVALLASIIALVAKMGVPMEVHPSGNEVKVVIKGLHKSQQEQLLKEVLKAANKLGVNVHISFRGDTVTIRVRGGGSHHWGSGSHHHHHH

206B62-2 = target: T10, 206B62-2; experiment: SEC binding assay (Superdex 200, normalised A230) of A, B and the mixture AB
T10 chain: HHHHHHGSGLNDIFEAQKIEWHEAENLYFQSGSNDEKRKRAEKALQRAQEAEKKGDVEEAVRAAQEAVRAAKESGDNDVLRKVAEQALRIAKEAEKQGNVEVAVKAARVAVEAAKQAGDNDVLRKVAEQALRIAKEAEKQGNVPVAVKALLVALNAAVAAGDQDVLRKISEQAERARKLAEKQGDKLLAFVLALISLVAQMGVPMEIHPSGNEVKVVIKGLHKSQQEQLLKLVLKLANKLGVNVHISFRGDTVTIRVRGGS
Method: as §1

LHD206 B62-1 = target: T11, LHD206 B62-1; experiment: as above
T11 single chain, LHD206 chain B fused to DHR62: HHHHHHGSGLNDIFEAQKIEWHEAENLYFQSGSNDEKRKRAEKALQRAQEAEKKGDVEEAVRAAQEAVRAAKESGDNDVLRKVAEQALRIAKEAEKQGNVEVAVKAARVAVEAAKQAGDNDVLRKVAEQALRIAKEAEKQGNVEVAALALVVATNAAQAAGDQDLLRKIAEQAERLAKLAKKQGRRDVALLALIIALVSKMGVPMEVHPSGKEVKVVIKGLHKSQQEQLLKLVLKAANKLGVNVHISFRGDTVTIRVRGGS
Method: as §1

284B = target: T12, 284B; experiment: as above
T12 construct: also called LHD284 B; LHD284 chainB
T12 chain: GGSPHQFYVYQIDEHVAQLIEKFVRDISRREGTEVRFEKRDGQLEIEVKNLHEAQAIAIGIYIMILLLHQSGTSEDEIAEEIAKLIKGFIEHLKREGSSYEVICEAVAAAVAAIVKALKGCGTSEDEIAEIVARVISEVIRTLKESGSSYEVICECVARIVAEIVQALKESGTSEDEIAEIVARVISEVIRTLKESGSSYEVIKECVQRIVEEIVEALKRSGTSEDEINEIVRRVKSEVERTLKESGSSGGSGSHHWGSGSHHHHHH
Method: as §1

B1: 101A21 (designed binder)
chain: HHHHHHGSGLNDIFEAQKIEWHEAENLYFQSGSSEKEKVEELAQRIREQLPDTELAREAQELADEARKSDDSEALKVVYLALRIVQQLPDTELAREALELAKEAVKSTDSEKLKVVYLALRVVQQLPDTEEARKALEIAKEAVKADAQILLAIARAVLKMGVEMEVHPSGNEVKVVIKGLHIKQQRQLYRDVREAAKKAGVEVEIEVEGDTVTIVVRE
B1: binds (LHD101 chainB); no binding [1]; binds (101B4). B1: binds (101B82); binds (LHD101 B8); binds (101B62). B1: binds (101B14).

B2: 29A53 (designed binder)
chain: TWQWVLINISEEARQLIEKAVRAISKKEGTEVHFEKDDGVLHIRVKNLHEKRAREIHKVAKLILEVAAAERIVRERPGSNLAKKALEIILRAAEELAKADVDAALEAAVRAAEKVVREQPGSNLAKKALEIILRAAEELAKLPDPEALKEAVKAAEKVVREQPGSELAKKALEIIERAAEELKKSPDPEAQKEAKKAEQKVREERPGSSGSHHHHHH
notes: also called LHD29A53
B2: binds [1]; binds (29B53).

B3: LHD101 chainB, split luciferase reporter construct (designed binder)
chain: GRQEKVLKSIEETVRKMGVTMETHRSGNEVKVVIKGLHESQQEQLLEDVLRTAEKQGVRVRIRFKGDTVTIVVRE
notes: not shown: N-terminal Strep-tag and sfGFP; GS-linker and smBiT or lgBiT
With B3 the Kd [2] was 8 nM and 11 nM.

B4: 206A54 (designed binder)
chain: HHHHHHGSGLNDIFEAQKIEWHEAENLYFQSGSTEDERRELEKVARKAIEAAREGNTDEVREQLQRALEIARESGTTEAVKLALEVVARVAIEAARRGNTDAVREALEVALEIARESGTTEAVKLALEVVARVAIEAARRGNTDAVREALAVAVKIALKSGTEEAFRLAKEVIKRVSDEAKKQGNEDAVKEAESFDAAAELILSLLKLFRELHERGTEIVVEVHINGRKTEIEVQGIDKRLLQIILEVIIEEIAREGPDKVEVNVHSGGQTWTFRYGGS
B4: binds (DF206); binds (206B62-2); binds (LHD206 B62-1).

B5: 284A82 (designed binder)
chain: HHHHHHGSGLNDIFEAQKIEWHEAENLYFQSGSDEEVQEAVERAEELREEAEELIKKARKTGDAELLRKALEALEEAVRAVEEAIKRNPDNDEAVETAVRLARELKKVAEELQERAKKTGDAELLKLALRALEVAVRAVELAIKSNPDNDEAVETAVRLAKELLKVAILLAKRAQETGDKELEKLARRALEVAKRAVELAIKSNPDNKEARILKLLLELAELLIELALRGTIIIVEVHINGERQTKYLILAPVEELLKHLERIEEKIKREGASEVEVKVTSGGTTWTFNIKGS
notes: also called LHD284 A DHR82 N
B5: binds (284B).

Source: US20240368233A1 (University of Washington, published 2024)
